3 compounds from US20050282743A1, “Molecular interactions in cells” (Arbor Vita Corporation, priority 2001, published 2005) can be followed below.

Ends that are not written are not given here. Peptide text beside a SMILES is read from it. * marks the point of attachment. Biotin = O=C1N[C@H]2[C@H](CS[C@H]2CCCCC(=O)*)N1

Holding throughout (assay type): binding
In assay [1] the target is T1, PDZ protein (GST-PDZ fusion) (Homo sapiens, UniProt Q76G19).
T1 construct: made in house; host or cells: E. coli (DH5alpha, BL21 or JM109)
T1 sequence (Q76G19 1-769): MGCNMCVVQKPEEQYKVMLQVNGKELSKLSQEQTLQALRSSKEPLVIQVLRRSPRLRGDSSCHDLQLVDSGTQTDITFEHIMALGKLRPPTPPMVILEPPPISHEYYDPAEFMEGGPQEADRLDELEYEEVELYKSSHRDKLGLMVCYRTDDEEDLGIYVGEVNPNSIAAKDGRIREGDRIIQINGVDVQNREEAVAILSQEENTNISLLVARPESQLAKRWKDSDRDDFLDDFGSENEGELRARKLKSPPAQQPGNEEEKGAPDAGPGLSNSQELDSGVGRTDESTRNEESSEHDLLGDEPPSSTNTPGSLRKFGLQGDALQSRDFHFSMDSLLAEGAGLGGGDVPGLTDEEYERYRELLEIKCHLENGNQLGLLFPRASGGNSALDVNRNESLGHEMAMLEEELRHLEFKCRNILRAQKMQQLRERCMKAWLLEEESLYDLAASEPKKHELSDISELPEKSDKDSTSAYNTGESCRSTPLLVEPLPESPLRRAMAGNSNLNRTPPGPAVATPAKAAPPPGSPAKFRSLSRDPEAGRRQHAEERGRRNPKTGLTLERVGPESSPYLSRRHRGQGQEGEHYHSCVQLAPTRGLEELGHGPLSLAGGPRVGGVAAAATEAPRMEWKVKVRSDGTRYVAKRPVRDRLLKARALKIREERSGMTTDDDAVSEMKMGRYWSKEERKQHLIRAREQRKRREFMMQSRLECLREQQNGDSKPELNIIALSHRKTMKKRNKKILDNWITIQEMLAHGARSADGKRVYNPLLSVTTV
As to the kind of experiment: G' assay (10 uM PL peptide), results of TABLE 7 and TABLE 12. To be noted: PDZ LU1, PDZ Domain 1. In a few lines: (§1)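 Biotinylated PL peptides at 10 uM (vs 20 uM in G^0 assay) bound to GST-PDZ fusions; PDZ protein at 5 ug/ml unless another concentration listed. Bound peptide read as A450 nm, classified 0–5 (0 = A450 0; 5 = A450 >4 repeated).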

Assay [2] has as its target T2, PDZ protein (GST-PDZ fusion) (Homo sapiens, UniProt Q9H6Y5).
T2 construct: made in house; host or cells: E. coli (DH5alpha, BL21 or JM109)
T2 sequence (Q9H6Y5 1-334): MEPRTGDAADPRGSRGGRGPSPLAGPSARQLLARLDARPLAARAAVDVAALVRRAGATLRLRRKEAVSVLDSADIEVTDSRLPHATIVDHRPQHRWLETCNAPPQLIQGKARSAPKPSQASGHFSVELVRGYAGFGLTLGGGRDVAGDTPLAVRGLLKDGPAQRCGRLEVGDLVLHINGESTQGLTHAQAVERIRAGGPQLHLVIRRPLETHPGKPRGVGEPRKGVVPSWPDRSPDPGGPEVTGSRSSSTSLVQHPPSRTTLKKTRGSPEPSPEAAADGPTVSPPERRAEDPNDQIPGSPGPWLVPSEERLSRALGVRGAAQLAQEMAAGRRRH
The description is as above. To be noted: PDZ FLJ21687, PDZ Domain 1. In outline:
as §1

Assay [3] concerns the target T3, PDZ protein (GST-PDZ fusion) (Homo sapiens, UniProt Q9Y566).
T3 construct: made in house; host or cells: E. coli (DH5alpha, BL21 or JM109)
The assay is described as above. Conditions: PDZ SHANK1, PDZ Domain 1. In outline:
as §1

In assay [4] the target is T4, PDZ-domain polypeptide (GST/PDZ fusion protein) (Homo sapiens, UniProt Q9HD26).
T4 construct: made in house; host or cells: E. coli (DH5alpha, BL21 or JM109)
As to the kind of experiment: Apparent affinity (Kd) by titration of PL peptide in the G assay. Conditions: Peptide Optimal Conc (Kd by titration of the PL peptide), PDZ PIST, PDZ Domain 1. In outline:
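A fixed concentration of GST/PDZ fusion protein, 5 ug/ml by default, was mixed in solution with increasing labeled PL peptide (e.g. 0.1 uM-1 mM). Reaction times ranged from 10 minutes to 2 days at 4-37° C. Complexes were separated from free peptide and detected via the label as in the G assay, apparent affinity coming from the saturating concentration.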

T3 sequence (Q9Y566 whole entry, the tested form may be a part): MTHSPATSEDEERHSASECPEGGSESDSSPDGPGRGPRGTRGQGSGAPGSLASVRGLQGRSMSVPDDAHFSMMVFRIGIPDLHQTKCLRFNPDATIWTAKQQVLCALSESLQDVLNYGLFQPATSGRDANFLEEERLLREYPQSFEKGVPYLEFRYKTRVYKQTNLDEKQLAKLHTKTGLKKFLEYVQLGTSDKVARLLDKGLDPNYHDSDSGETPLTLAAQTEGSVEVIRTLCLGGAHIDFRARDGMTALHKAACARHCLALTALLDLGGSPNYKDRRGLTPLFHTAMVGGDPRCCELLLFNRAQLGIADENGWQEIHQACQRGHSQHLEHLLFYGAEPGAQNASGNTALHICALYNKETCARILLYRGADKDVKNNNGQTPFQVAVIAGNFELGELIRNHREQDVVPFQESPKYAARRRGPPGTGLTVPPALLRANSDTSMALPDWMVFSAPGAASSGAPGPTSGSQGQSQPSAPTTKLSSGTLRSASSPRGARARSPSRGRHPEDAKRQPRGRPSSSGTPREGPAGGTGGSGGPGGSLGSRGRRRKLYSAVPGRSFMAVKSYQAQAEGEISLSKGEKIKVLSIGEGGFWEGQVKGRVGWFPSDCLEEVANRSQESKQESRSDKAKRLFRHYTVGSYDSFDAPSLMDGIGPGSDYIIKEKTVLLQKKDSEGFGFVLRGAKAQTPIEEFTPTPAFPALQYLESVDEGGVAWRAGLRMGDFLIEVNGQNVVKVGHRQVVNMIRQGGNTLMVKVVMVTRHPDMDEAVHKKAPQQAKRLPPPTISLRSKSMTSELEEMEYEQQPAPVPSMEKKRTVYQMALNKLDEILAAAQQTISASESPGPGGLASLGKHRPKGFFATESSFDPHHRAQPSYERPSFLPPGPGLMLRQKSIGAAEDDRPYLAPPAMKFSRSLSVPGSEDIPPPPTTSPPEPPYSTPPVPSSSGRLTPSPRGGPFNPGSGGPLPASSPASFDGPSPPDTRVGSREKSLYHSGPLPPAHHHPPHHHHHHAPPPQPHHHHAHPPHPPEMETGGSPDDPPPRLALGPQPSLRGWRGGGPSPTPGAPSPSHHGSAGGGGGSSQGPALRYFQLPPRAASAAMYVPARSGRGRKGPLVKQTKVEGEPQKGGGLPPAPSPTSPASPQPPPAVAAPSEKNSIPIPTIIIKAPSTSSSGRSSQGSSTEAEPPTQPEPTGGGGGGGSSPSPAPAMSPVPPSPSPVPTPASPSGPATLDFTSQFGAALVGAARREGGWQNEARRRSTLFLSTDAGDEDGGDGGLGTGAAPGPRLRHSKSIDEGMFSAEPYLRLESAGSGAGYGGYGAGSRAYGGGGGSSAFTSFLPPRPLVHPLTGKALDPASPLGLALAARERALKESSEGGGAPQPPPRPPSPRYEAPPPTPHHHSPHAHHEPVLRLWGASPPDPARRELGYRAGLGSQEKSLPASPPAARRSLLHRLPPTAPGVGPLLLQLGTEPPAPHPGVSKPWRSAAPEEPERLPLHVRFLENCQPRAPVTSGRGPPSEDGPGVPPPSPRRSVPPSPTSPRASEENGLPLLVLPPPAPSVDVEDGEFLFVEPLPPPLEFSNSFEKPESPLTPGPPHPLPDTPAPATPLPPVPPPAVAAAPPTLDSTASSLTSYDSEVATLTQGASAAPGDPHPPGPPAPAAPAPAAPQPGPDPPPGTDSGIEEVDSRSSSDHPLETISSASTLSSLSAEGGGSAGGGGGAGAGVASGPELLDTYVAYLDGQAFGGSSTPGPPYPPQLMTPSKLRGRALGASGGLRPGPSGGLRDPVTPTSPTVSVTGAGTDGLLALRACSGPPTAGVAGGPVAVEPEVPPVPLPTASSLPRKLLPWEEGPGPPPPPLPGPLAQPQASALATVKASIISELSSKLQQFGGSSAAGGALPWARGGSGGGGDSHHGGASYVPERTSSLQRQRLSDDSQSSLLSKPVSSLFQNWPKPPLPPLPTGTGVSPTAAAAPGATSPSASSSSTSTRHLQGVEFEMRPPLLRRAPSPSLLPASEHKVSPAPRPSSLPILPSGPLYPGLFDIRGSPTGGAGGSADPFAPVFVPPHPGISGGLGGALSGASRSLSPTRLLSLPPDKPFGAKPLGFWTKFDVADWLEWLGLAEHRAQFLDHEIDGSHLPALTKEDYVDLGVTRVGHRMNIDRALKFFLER

Regarding “A2AC_HUMAN (Modified) (Biotin-DFRPSFKHILFRRARRGFRQ; not fully specified)”, the Classification in assay [1] is 4 (A450 nm 3-4).
“A2AA_HUMAN (modified) (Biotin-HDFRRAFKKILARGDRKRIV; not fully specified)”: the Classification in assay [2] is 1 (A450 nm 0-1).
Take `CC[C@H](C)[C@H](NC(=O)[C@H](CC(=O)O)NC(=O)[C@H](CCC(=O)O)NC(=O)[C@H](CCCNC(=N)N)NC(=O)[C@@H](NC(=O)CCCC[C@@H]1SC[C@@H]2NC(=O)N[C@@H]21)[C@@H](C)O)C(=O)N[C@@H](Cc1ccc(O)cc1)C(=O)N[C@H](C(=O)N[C@@H](CC(N)=O)C(=O)N[C@@H](Cc1ccc(O)cc1)C(=O)N1CCC[C@H]1C(=O)N[C@H](C(=O)N[C@@H](Cc1ccccc1)C(=O)N[C@@H](CO)C(=O)N[C@@H](CCCNC(=N)N)C(=O)N[C@@H](CCCNC(=N)N)C(=O)N1CCC[C@H]1C(=O)N[C@@H](CCCCN)C(=O)N[C@H](C(=O)N[C@@H](CCCNC(=N)N)C(=O)N[C@H](C(=O)O)C(C)C)[C@@H](C)O)[C@@H](C)O)C(C)C` [DNAM-1] (Biotin-TREDIYVNYPTFSRRPKTRV-OH; C-terminus assumed): in assay [3], the Classification is listed as 5 (A450 nm of 4 more than 2× repeated). For the same compound, the Kd in assay [4] was determined as 2500 nM.
